In data set [1] the target is T1, Pex1/Pex6 (Pex1-FLAG/His-Pex6) (Saccharomyces cerevisiae, UniProt P24004+P33760).
T1 construct: heterohexamer of alternating Pex1 and Pex6
T1 sequence (P24004 1-1043): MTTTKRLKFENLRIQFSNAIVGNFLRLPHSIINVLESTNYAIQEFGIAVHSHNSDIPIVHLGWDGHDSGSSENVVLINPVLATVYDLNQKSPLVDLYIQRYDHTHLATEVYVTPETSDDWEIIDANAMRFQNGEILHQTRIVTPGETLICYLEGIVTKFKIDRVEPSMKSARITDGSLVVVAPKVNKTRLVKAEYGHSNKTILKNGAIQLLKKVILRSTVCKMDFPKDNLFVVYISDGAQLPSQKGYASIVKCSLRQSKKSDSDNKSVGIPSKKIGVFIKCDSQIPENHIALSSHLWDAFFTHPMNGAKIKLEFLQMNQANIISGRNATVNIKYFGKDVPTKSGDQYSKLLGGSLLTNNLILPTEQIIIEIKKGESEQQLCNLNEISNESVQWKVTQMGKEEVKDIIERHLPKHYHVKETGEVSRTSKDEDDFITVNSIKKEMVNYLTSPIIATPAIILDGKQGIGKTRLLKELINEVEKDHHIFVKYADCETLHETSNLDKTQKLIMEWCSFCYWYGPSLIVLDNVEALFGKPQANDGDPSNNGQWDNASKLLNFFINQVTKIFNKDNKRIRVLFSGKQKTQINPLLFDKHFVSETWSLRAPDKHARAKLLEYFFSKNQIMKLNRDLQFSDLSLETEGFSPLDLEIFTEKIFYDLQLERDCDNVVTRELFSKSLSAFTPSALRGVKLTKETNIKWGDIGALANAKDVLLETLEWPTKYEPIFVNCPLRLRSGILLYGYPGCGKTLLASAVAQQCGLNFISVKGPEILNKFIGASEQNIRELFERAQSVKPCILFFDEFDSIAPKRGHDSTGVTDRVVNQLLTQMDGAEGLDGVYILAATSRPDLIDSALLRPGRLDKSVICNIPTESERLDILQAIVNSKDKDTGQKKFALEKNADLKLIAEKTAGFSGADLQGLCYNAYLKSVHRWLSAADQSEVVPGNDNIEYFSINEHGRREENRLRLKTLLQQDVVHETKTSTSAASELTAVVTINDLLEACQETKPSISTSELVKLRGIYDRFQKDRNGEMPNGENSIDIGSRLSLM
T1 sequence (P33760 1-1030): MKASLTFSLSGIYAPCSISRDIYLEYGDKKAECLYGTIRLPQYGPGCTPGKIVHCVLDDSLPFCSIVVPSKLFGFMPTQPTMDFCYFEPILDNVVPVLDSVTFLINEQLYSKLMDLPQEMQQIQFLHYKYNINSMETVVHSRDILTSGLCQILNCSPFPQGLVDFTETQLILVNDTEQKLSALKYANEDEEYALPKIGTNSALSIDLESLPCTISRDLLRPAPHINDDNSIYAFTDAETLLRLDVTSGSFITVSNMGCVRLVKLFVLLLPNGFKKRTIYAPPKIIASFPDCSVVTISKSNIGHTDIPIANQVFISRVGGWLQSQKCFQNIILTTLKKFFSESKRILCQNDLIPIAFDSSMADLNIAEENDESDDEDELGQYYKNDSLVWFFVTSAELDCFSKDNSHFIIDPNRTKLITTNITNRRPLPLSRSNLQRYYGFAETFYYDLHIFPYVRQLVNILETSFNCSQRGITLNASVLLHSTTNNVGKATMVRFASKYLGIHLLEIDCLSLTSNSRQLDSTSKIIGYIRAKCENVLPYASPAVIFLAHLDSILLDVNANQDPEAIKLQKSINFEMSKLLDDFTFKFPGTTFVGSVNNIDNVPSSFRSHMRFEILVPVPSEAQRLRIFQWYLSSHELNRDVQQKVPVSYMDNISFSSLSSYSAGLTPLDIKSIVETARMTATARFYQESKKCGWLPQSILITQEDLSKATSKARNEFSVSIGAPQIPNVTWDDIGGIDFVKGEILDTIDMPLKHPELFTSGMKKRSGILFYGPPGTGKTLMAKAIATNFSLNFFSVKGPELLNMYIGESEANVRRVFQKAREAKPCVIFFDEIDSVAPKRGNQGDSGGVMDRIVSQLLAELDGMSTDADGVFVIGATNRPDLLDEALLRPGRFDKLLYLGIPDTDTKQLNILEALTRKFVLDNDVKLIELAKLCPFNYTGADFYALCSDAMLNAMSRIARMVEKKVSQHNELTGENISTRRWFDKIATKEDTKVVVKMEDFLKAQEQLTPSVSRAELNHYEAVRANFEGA
Put plainly: cryo-EM structure, ~[…] Å D1, ~[…]-9 Å D2. The following applies: 1 mM ATP, pH 7.6, 10 mM MgCl2, with mEOS3.2-Pex15 1-309 (no substrate density in pore); ATP modelled in all D1 sites and four D2 sites. Format: binding.

The next data set deals with T2, Pex1/ΔN1-Pex6 (Saccharomyces cerevisiae, UniProt P24004+P33760).
T2 construct: Pex1 with C-terminal FLAG; Pex6 lacking first 184 residues (N1 domain) with N-terminal His tag; heterohexamer
T2 sequence (P24004 1-1043): T1 sequence (P24004 1-1043)
T2 sequence (P33760 185-1030): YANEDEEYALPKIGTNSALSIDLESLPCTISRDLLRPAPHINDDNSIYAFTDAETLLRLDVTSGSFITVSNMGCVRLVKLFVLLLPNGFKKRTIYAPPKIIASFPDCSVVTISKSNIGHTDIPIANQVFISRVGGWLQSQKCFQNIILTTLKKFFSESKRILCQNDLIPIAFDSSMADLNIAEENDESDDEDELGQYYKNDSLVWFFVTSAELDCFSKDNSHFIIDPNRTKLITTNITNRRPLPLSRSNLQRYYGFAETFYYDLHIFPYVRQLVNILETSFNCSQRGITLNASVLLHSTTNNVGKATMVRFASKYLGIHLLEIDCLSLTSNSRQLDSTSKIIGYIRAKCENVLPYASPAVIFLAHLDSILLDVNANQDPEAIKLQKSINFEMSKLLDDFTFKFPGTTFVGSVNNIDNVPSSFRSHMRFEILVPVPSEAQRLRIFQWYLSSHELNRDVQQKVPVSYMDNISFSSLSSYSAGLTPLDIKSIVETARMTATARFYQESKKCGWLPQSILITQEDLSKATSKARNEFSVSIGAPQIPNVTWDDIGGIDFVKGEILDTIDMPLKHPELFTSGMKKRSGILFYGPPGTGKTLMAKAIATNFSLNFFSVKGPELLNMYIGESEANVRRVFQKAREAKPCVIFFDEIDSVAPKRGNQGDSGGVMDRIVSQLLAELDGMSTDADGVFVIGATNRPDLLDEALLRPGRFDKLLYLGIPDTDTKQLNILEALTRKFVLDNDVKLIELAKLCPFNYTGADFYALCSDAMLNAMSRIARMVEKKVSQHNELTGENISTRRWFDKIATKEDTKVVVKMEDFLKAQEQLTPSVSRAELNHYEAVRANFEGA
Put plainly: enzyme-coupled ATPase assay. It is filed as biochemical. Conditions: 5 mM ATP, 30 °C.

Data set [2] relates to T3, Nc1ncnc2c1ncn2[C@@H]1O[C@H](COP(=O)(O)OP(=O)(O)OP(=O)(O)O)[C@@H](O)[C@H]1O.
T3 construct: heterohexamer of alternating Pex1 and Pex6
Put plainly: purified protein. Format: biochemical, Saccharomyces cerevisiae. The following applies: 30 °C, ATP varied, hydrolysis in D2 ring.

Another data set has as its target T4, His-Pex6 (S. cerevisiae, UniProt P33760 1-1030).
T4 construct: Pex6, AAA-ATPase of S. cerevisiae; no limits stated for the construct; In all experiments it stood in a complex with Pex1-FLAG or a Pex1 variant; also called ScPex6; His-tagged Pex6; source: E. coli BL21*(DE3), co-expressed with Pex1-FLAG or its variants; in lysate, then purified (Ni-NTA, anti-FLAG, Superose6 Increase); not shown: His, N-terminal, kept
T4 sequence: T1 sequence (P33760 1-1030)
As to the kind of experiment: cross-linking; photocrosslinking by AzF in Pex1 as above, in the absence or presence of 10 uM Pex15 1-309, Pex15 1-266 or Pex15 43-309; His-Pex6 stood in the complex with the Pex1 variant. The following applies: both partners purified.

As to `Nc1ncnc2c1ncn2[C@@H]1O[C@H](COP(=O)(O)OP(=O)(O)OP(=O)(O)O)[C@@H](O)[C@H]1O` [ATP], the “cryo-EM structure, ~4 Å D1, ~5-9 Å D2” value in data set [1] is listed as “we find density for nucleotide in all the D1 ATPase domains, which we modeled as ATP”. Also, at Pex1/ΔN1-Pex6, the “enzyme-coupled ATPase assay” value was “Pex1/ΔN1-Pex6 motor had ATPase activity comparable to WT Pex1/Pex6”.
As a reminder, the Km is the substrate concentration at which the rate is half of its maximum. Consider “Pex1/Pex6 (Pex1-FLAG/His-Pex6) (Saccharomyces cerevisiae S288C)”, for which the Km in data set [2] is 230 µM.
On the same count and under the same terms, for “Pex1/Pex6 (Pex1-FLAG/His-Pex6) (Saccharomyces cerevisiae S288C; P24004:DEL941-967)” the value was 1030 µM.

B1: Pex15 1-266 (domain or fragment, S. cerevisiae, UniProt Q08215 1-266, looked up)
chain: MAASEIMNNLPMHSLDSSLRDLLNDDLFIESDESTKSVNDQRSEVFQECVNLFIKRDIKDCLEKMSEVGFIDITVFKSNPMILDLFVSACDIMPSFTKLGLTLQSEILNIFTLDTPQCIETRKIILGDLSKLLVINKFFRCCIKVIQFNLTDHTEQEEKTLELESIMSDFIFVYITKMRTTIDVVGLQELIEIFIFQVKVKLHHKKPSPNMYWALCKTLPKLSPTLKGLYLSKDVSIEDAILNSIDNKIQKDKAKSKGKQRGVKQK
For B1, the binding result with His-Pex6 is listed as “binds”.

B2: Pex15 1-309 (cytosolic domain of Pex15) (domain or fragment, S. cerevisiae, UniProt Q08215 1-309, looked up)
chain: MAASEIMNNLPMHSLDSSLRDLLNDDLFIESDESTKSVNDQRSEVFQECVNLFIKRDIKDCLEKMSEVGFIDITVFKSNPMILDLFVSACDIMPSFTKLGLTLQSEILNIFTLDTPQCIETRKIILGDLSKLLVINKFFRCCIKVIQFNLTDHTEQEEKTLELESIMSDFIFVYITKMRTTIDVVGLQELIEIFIFQVKVKLHHKKPSPNMYWALCKTLPKLSPTLKGLYLSKDVSIEDAILNSIDNKIQKDKAKSKGKQRGVKQKIHHFHEPMLHNSSEEQVKVEDAFNQRTSTDSRLQSTGTAPRKK
notes: also called Pex15's cytosolic domain
Take B2: in the data set with His-Pex6, the binding result is “binds”.

The values above are taken from paper PMC10777020, “The N1 domain of the peroxisomal AAA-ATPase Pex6 is required for Pex15 binding and proper assembly with Pex1” (The Journal of Biological Chemistry, 2023).
